Consider five molecules from patent US7598352B2, “Method of identifying polypeptide monobodies which bind to target proteins and use thereof” (University of Rochester, priority 2000, dated 2009).

Holding throughout (type): cell-based
Data set [1] deals with T1, ERα-EF (residues 297-595, the E and F domains of Estrogen Receptor α) (Homo sapiens, UniProt P03372, G400V).
T1 construct: expressed in transfected cells; host or cells: Saccharomyces cerevisiae RFY206 (mated with EGY48 for the survival screens)
T1 sequence (P03372 with tags, fused parts or gaps G400V): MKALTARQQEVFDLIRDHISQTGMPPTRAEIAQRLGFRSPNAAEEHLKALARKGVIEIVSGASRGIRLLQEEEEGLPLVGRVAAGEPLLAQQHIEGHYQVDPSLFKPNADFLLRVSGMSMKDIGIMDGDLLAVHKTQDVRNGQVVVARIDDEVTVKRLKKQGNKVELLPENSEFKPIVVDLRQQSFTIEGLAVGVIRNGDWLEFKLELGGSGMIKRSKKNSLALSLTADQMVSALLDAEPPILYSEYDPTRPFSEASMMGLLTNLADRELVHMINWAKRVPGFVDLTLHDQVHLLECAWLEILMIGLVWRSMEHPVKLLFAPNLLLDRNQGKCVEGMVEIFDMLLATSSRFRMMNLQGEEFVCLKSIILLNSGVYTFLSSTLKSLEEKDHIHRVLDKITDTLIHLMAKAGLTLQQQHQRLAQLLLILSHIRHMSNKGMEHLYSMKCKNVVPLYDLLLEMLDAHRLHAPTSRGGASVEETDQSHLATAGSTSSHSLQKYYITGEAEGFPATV
Description: Quantitative β-galactosidase yeast two-hybrid assay, ERα-EF bait. The note with it: for binding to different ERα-EF/agonist complexes: agonists E2, estriol, diethylstilbestrol, genistein, FIGS. 15A-D. On the procedure: (§1) Quantitative assays were performed as follows. The yeast strain RFY206 was (1) first transformed with pEGERα297-595 (or pEGERα297-554) and pSH18-34 and (2) subsequently with a derivative of the pYT45 plasmid encoding a particular monobody. Yeast cells were grown overnight at 30° C. in YC Glc-his-ura-trp media. The culture was then spun down, the media were discarded, and the cells were resuspended in YC Gal Raf-his-ura-trp media containing a ligand at a final cell density of 0.2 OD660 nm in a total volume of 175 μl in the wells of a deep 96-well plate. Ligands used were E2, ICI182,780, OHT, raloxifene, progesterone, estriol, diethylstilbestrol, and genistein. The ligand concentration was 1 μM except for genistein (10 μM). After incubating for six hours at 30° C. with shaking, 175 μl of β--galactosidase assay buffer (60 mM Na2HPO4, 40 mM NaH2PO4, 10 mM KCl, 1 mM MgSO4, 0.27% β-mercaptoethanol, 0.004% SDS, 4 mg/ml 2-nitrophenyl-β-D-[…], 50% Y-PER (Pierce)) was added to the culture, incubated at 30° C., then the reaction was stopped by adding 150 μl of 1M Na2CO3. After centrifugation, OD420 was measured and the β-galactosidase activity was calculated.
The binding specificity of the monobodies toward different ERα-EF/ligand complexes was examined using quantitative β-galactosidase assays. It has been shown that the β-galactosidase activity correlates well with the interaction affinity between the bait and prey of the yeast two-hybrid system (Estojak et al., 1995), allowing an in vivo discrimination of interaction affinity. To minimize the effect of different ligands on the expression level and degradation of the LexA-ER fusion protein, β-galactosidase activity was determined after a short incubation period (6 hours) following the addition of a ligand and the initiation of monobody production. It was confirmed that yeast samples prepared in the presence and absence of ligands contained similar levels of ERα-EF protein (FIG. 14H).

Data set [2] has as its target T1, ERα-EF (residues 297-595, the E and F domains of Estrogen Receptor α). Description: Yeast two-hybrid survival assay (LEU+ growth selection) of monobody clones. The note with it: ligand ICI182,780, pYT45B3F7 library clones. From the text: Briefly, utilizing such a system, plasmids are constructed that encode two fusion proteins, the interaction of which is shown schematically in FIGS. 4A-B. The first fusion protein (also known as “bait”) contains the DNA-binding domain (e.g., LexA) fused to a known protein, in this case a nuclear receptor or fragment thereof which includes a functional ligand binding domain (NR-LBD). Any of the above-identified nuclear receptors (or fragments thereof which include a functional ligand binding domain) can be used as the bait protein or polypeptide. The second fusion protein (also known as “prey”) includes an activation domain (e.g., B42) fused to an unknown protein, in this case a polypeptide monobody, that is encoded by a cDNA which has been recombined into a plasmid as part of a combinatorial cDNA library. Both plasmids include a promoter which is operable in yeast cells and which has been ligated upstream of the fusion protein coding regions. […] In contrast, where interaction between the monobody of the prey and the nuclear receptor ligand binding domain of the bait occurs (FIG. 4B), a functional transcription factor is reconstituted, resulting in expression of the reporter gene which can be detected by an assay for the reporter gene product. […]

Data set [3] has as its target T2, ERα-E (residues 297-554, the E domain of Estrogen Receptor α) (Homo sapiens, UniProt P03372, G400V).
T2 construct: ERα-E (residues 297-554, the E domain of Estrogen Receptor α); expressed in transfected cells; host or cells: Saccharomyces cerevisiae RFY206
T2 sequence (P03372 297-554 G400V): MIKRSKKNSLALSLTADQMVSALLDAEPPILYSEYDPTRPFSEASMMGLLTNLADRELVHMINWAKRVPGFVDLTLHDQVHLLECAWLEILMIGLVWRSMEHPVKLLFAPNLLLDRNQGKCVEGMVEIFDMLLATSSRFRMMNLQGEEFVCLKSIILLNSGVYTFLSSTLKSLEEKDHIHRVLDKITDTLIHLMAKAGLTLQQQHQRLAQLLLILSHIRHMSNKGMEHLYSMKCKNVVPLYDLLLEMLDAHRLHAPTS
Description: Quantitative β-galactosidase yeast two-hybrid assay, ERα-E bait (F domain deleted) compared with ERα-EF. The following applies: for effect of deletion of the F domain on interaction with the ERα fragments: in the presence of E2, ERα-E vs ERα-EF, FIGS. 16A-C. On the procedure:
as §1
The affects of the F domain (residues 551-595) on interactions of monobodies with the LBD (the E domain) of ERα was tested. The β-galactosidase activity of cells containing a LexA-ERα E domain fusion protein and a monobody-activation domain fusion protein was compared to the β-galactosidase activity of cells containing LexA-ERα-EF and the same monobody-activation domain fusion protein (FIGS. 16A-E).

Substitutions are numbered along the chain they refer to.

B1: Clone F2-2#11: pYT45B3F7 library monobody, E2 screen; FG loop RVMDMLL (SEQ ID No: 44) (protein)
chain: MQVSDVPRDLEVVAATPTSLLISWDAPAVTVRYYRITYGETGGNSPVQEFTVPGSKSTATISGLKPGVDYTITVYAVTGRVMDMLLSKPISINYRT
modifications: left off: large carriers
As for B1, the “sensitivity to the differences among agonist complexes” value in data set [1] (ERα-EF/agonist complexes) is recorded as “most sensitive”. In data set [1] (ERα-EF/agonist complexes, FIGS. 14-16), the “β-galactosidase activity among those tested” value was “lowest”. Further, the “binding to different ERα-EF/agonist complexes” value in data set [1] is “different reactivity”.

B2: F2-2#10 (protein)
chain: B1 chain with M82R, M84L, L86M
modifications: left off: large carriers
As to B2, the “Binding Specificity ICI” value in data set [2] was “weak+”.

B3: Clone 23,31,E31,3,4,5: pYT45B3F7 library monobody, E2 screen; FG loop LRLMLAG (SEQ ID No: 36), wild-type BC loop (protein)
chain: B1 chain with R80L, V81R, M82L, D83M, M84L, L85A, L86G
modifications: left off: large carriers
With B3, the “binding to different ERα-EF/agonist complexes” value in data set [1] is reported as “bind equally well”. In addition, the “effect of deletion of the F domain on interaction with the ERα fragments” value in data set [3] is “little effect”.

B4: Clone 33: pYT45B3F7 library monobody, OHT screen; FG loop TWVRPNQ (SEQ ID No: 49) (protein)
chain: B1 chain with R80T, V81W, M82V, D83R, M84P, L85N, L86Q
modifications: left off: large carriers
For the molecule B4, the “effect of deletion of the F domain on interaction with ERα” value in data set [3] (in the absence of a ligand) was “did not increase”. Besides, in data set [3] (in the presence of OHT, FIG. 16D), the “interactions with ERα-E and ERα-EF compared” value is on record as “similar”. For the same molecule, the “interaction with ERα-E/raloxifene complex relative to ERα-EF/raloxifene complex” value in data set [3] (raloxifene, FIG. 16D) is recorded as “significantly greater”.

B5: SRC-1: NR-box fragment (residues 570-780) of steroid receptor coactivator-1, natural coactivator of ER (protein)
chain: PSRLNIQPAKAESKDNKEIASILNEMIQSDNSSSDGKPLDSGLLHNNDRLSDGDSKYSQTSHKLVQLLTTTAEQQLRHADIDTSCKDVLSCTGTSNSASANSSGGSCPSSHSSLTERHKILHRLLQEGSPSDITTLSVEPDKKDSASTSVSVTGQVQGNSSIKLELDASKKKESKDHQLLRYLLDKDEKDLRSTPNLSLDDVKVKVEKKEQ
modifications: left off: large carriers
For the molecule B5, in data set [1], the “binding to different ERα-EF/agonist complexes” value is given as “bind equally well”. Further, the “effect of deletion of the F domain on interaction with the ERα fragments” value in data set [3] is given as “little effect”.
